According to patent US20240295562:

Experiments:
IAKLDEESILKQK = target: T1, IAKLDEESILKQK
T1 chain: IAKLDEESILKQK

KKLDEESILKQK = target: T2, KKLDEESILKQK
T2 chain: KKLDEESILKQK

QP514 (DQQRLIFAYPDDD) = target: T3, QP514 (DQQRLIFAYPDDD)
T3 chain: DQQRLIFAYPDDD

RRLDEESILKQK = target: T4, RRLDEESILKQK
T4 chain: RRLDEESILKQK

WKELDEESILKQK = target: T5, WKELDEESILKQK
T5 chain: WKELDEESILKQK

QP47 peptide (FAAAYPDDD) = target: T6, QP47 peptide (FAAAYPDDD)
T6 chain: FAAAYPDDD

B1: AP37 (protein)
chain: MDLKGGESMVDWKLMQEIIEAPGVSGYEHLGIRDIVVDVLKEVADEVKVDKLGNVIAHFKGSSPRIMVAAHMDKIGVMVNHIDKDGYLHIVPIGGVLPETLVAQRIRFFTEKGERYGVVGVLPPHLRRGQEDKGSKIDWDQIVVDVGASSKEEAEEMGFRVGTVGEFAPNFTRLNEHRFATPYLDDRICLYAMIEAARQLGDHEADIYIVGSVQEEVGLRGARVASYAINPEVGIAMDVTFAKQPHDKGKIVPELGKGPVMDVGPNINPKLRAFADEVAKKYEIPLQVEPSPRPTGTDANMQINREGVATAVLSIPIRYMHSQVELADARDVDNTIKLAKALLEELKPMDFTPGHHHHHHHHHH
Q: Which results are given for B1?
A: Percent N-Terminal Residue Cut (HPLC assay), AP37 after conditioning, 1 µM (IAKLDEESILKQK): 74%; Percent N-Terminal Residue Cut (HPLC assay), AP37 after conditioning, 10 µM (IAKLDEESILKQK): 100%; Percent N-Terminal Residue Cut (HPLC assay), AP37 before conditioning, 1 µM (IAKLDEESILKQK): 13%; Percent N-Terminal Residue Cut (HPLC assay), AP37 before conditioning, 10 µM (IAKLDEESILKQK): 57%; Percent N-Terminal Residue Cut (HPLC assay), AP37 after conditioning, 1 µM (KKLDEESILKQK): 61%; Percent N-Terminal Residue Cut (HPLC assay), AP37 after conditioning, 10 µM (KKLDEESILKQK): 100%; Percent N-Terminal Residue Cut (HPLC assay), AP37 before conditioning, 1 µM (KKLDEESILKQK): 11%; Percent N-Terminal Residue Cut (HPLC assay), AP37 before conditioning, 10 µM (KKLDEESILKQK): 71%; cleavage of arginine in protein sequencing assay, AP37 (40 µM) alone (QP514 (DQQRLIFAYPDDD)): AP37 shows better efficiency cleaving arginine than PfuTET when alone; Percent N-Terminal Residue Cut (HPLC assay), AP37 after conditioning, 1 µM (RRLDEESILKQK): 70%; Percent N-Terminal Residue Cut (HPLC assay), AP37 after conditioning, 10 µM (RRLDEESILKQK): 100%; Percent N-Terminal Residue Cut (HPLC assay), AP37 before conditioning, 1 µM (RRLDEESILKQK): 8%; Percent N-Terminal Residue Cut (HPLC assay), AP37 before conditioning, 10 µM (RRLDEESILKQK): 26%; Percent N-Terminal Residue Cut (HPLC assay), AP37 after conditioning, 1 µM (WKELDEESILKQK): 97%; Percent N-Terminal Residue Cut (HPLC assay), AP37 after conditioning, 10 µM (WKELDEESILKQK): 99%; Percent N-Terminal Residue Cut (HPLC assay), AP37 before conditioning, 1 µM (WKELDEESILKQK): 18%; Percent N-Terminal Residue Cut (HPLC assay), AP37 before conditioning, 10 µM (WKELDEESILKQK): 55%

B2: AP30 (protein)
chain: MEVRNMVDYELLKKVVEAPGVSGYEFLGIRDVVIEEIKDYVDEVKVDKLGNVIAHKKGEGPKVMIAAHMDQIGLMVTHIEKNGFLRVAPIGGVDPKTLIAQRFKVWIDKGKFIYGVGASVPPHIQKPEDRKKAPDWDQIFIDIGAESKEEAEDMGVKIGTVITWDGRLERLGKHRFVSIAFDDRIAVYTILEVAKQLKDAKADVYFVATVQEEVGLRGARTSAFGIEPDYGFAIDVTIAADIPGTPEHKQVTHLGKGTAIKIMDRSVICHPTIVRWLEELAKKHEIPYQLEILLGGGTDAGAIHLTKAGVPTGALSVPARYIHSNTEVVDERDVDATVELMTKALENIHELKIGGSHHHHHHHHHHGGGSGGGSGGGSGLNDFFEAQKIEWHEGGGSGGGSGGGSGLNDFFEAQKIEWHE
Q: For B2, which “RSC (rapid sequential cleavage) population, protein sequencing assay with AP30 (5 µM)” value (QP47 peptide (FAAAYPDDD)) is on record?
A: The value was “The RSC population with AP30 was only ~25%”.

B3: Pyrococcus horikoshii TET II Aminopeptidase (hTET II) (protein)
chain: MEVRNMVDYELLKKVVEAPGVSGYEFLGIRDVVIEEIKDYVDEVKVDKLGNVIAHKKGEGPKVMIAAHMDQIGLMVTHIEKNGFLRVAPIGGVDPKTLIAQRFKVWIDKGKFIYGVGASVPPHIQKPEDRKKAPDWDQIFIDIGAESKEEAEDMGVKIGTVITWDGRLERLGKHRFVSIAFDDRIAVYTILEVAKQLKDAKADVYFVATVQEEVGLRGARTSAFGIEPDYGFAIDVTIAADIPGTPEHKQVTHLGKGTAIKIMDRSVICHPTIVRWLEELAKKHEIPYQLEILLGGGTDAGAIHLTKAGVPTGALSVPARYIHSNTEVVDERDVDATVELMTKALENIHELKI
Q: With B3 as the protein, how does the “RSC (rapid sequential cleavage) population, protein sequencing assay with hTETII (1 µM)” value (QP47 peptide (FAAAYPDDD)) read?
A: Its value is “RSC population is ~40%”.
